The target in assay [1] is Bradyrhizobium japonicum SemiSWEET (Bradyrhizobium japonicum). As to the kind of experiment: not stated; BjSemiSWEET in detergent (fig. S8A); method not given.
For assay [2] the target is unchanged. The experiment in a line: not stated; BjSemiSWEET in liposomes (fig. S8B); method not given.

The stoichiometry N is a count of units in the complex or per binding partner. On to “Bradyrhizobium japonicum SemiSWEET (natural protein)”, for which the stoichiometry N in assay [1] and in assay [2] was 2 in each case.

Values taken from publication PMC12609076.
